Measurements reported in publication PMC8809517, “Cofactor-independent RNA editing by a synthetic S-type PPR protein”.
Substitutions are numbered along the chain they refer to.

Legend:
Assay in all cases: high-throughput RNA pulldown from lysate on Ni-NTA beads; HRP: 50 mM Tris pH 8, 150 mM NaCl, 1 mM beta-mercaptoethanol, 50 ug/ml BSA, 3 ug/ml yeast RNA, 0.5% heparin; ITC and FP: Tris pH 8, 200 mM KCl, 5% glycerol; MST: 50 mM Tris pH 8, 200 mM NaCl, 1 mM DTT, BSA, heparin, 0.05% Tween 20
Conditions in all cases: tags: N-terminal His-eGFP
[1] = molecular target: T1, GFP-9S library array, motif 4 ND N98D;D124K (synthetic construct, N98D;D124K)
T1 chain: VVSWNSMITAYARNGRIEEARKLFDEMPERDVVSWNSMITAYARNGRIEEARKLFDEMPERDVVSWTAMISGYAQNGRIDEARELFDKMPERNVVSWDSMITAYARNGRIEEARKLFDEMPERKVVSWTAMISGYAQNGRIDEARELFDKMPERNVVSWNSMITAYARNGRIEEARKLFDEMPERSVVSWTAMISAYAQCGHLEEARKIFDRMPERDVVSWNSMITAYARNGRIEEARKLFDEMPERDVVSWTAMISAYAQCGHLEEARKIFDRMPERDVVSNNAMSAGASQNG

[2] = molecular target: T2, GFP-9S library array, motif 4 ND N98G;D124V (synthetic construct, N98G;D124V)
T2 chain: T1 chain with D98G, K124V

[3] = molecular target: T3, GFP-9S library array, motif 4 ND N98D;D124R (synthetic construct, N98D;D124R)
T3 chain: T1 chain with K124R

[4] = molecular target: T4, GFP-9S library array, motif 4 ND N98A;D124Y (synthetic construct, N98A;D124Y)
T4 chain: T1 chain with D98A, K124Y

[5] = molecular target: T5, GFP-9S library array, motif 4 ND N98A;D124Q (synthetic construct, N98A;D124Q)
T5 chain: T1 chain with D98A, K124Q

## AUUAGACGUGA (ssRNA) [Cy5-rpoA-G]
[1]; label: 5' Cy5
  Kd: 134 nM
[2]; label: 5' Cy5
  Kd: 118 nM
[3]; label: 5' Cy5
  Kd: 155 nM
[4]; label: 5' Cy5
  Kd: 68.5 nM
[5]; label: 5' Cy5
  Kd: 174 nM

## AUUAAACGUGA (ssRNA) [IR-rpoA-A]
[1]; label: 5' IRDye 800CW
  Kd: 334 nM
[2]; label: 5' IRDye 800CW
  Kd: 313 nM
[3]; label: 5' IRDye 800CW
  Kd: 326 nM
[4]; label: 5' IRDye 800CW
  Kd: 172 nM
[5]; label: 5' IRDye 800CW
  Kd: 306 nM

## AUUACACGUGA (ssRNA) [Cy5-rpoA]
[1]; label: 5' Cy5
  Kd: 154 nM
[2]; label: 5' Cy5
  Kd: 119 nM
[3]; label: 5' Cy5
  Kd: 154 nM
[4]; label: 5' Cy5
  Kd: 82.5 nM
[5]; label: 5' Cy5
  Kd: 249 nM

## AUUAUACGUGA (ssRNA) [IR-rpoA-U]
[1]; label: 5' IRDye 800CW
  Kd: 475 nM
[2]; label: 5' IRDye 800CW
  Kd: 234 nM
[3]; label: 5' IRDye 800CW
  Kd: 282 nM
[4]; label: 5' IRDye 800CW
  Kd: 175 nM
[5]; label: 5' IRDye 800CW
  Kd: 522 nM
